Laboratory results taken from patent US9175027B2, “Polymer-carbohydrate-lipid conjugates” (priority 2011, dated 2015).
Ends that are not written are not given here.

Tests used:
[1] = Body weight change as evidence of cisplatin renal toxicity; type: in vivo, mice (B6D2F1); details: mice, compared with free sugars
Method: Groups of four each of mixed gender mice (B6D2F1), […] and weights of 22 to 30 grams) were studied in duplicate. Each mouse was administrated cisplatin intravenously at a dose of 10 mg/kg (Table 15) and Intraperitoneally at a dose of 15 mg/kg (Table 16). The changes in body weights observed can be used as a direct evident in the renal toxicity effects.

[2] = Physical state of Propofol formulation with PEG-carbohydrate-lipid (solution vs suspension/microemulsion); type: physicochemical
Method: A propofol solution suitable for intravenous delivery is prepared as follows. 5% (w/v) of OAPDL-PEG in Saline was added to a vessel equipped with a mixer propeller and 2% (w/v) of Propofol was added with constant mixing at ambient room temperature. Mixing was continued until the drug was visually dispersed. Equal volume of Saline was added to the vessel with adequate mixing. Mixing continued for another 30 minutes or until a homogenous solution was achieved. A sample formulation is described in Table 14.
In Example 16, less concentrated or less purified PEG-sugar-lipid will create a suspension instead of an aqueous solution. For instance, the final concentration of the PEG-carbohydrate-lipid is less than 1.5% (w/v), it will form a suspension. Similarly when the oligomer purity is 80% or less, regardless the concentration of the PEG-carbohydrate-lipid, an emulsified solution will be observed instead of a transparent solution.
Propofol as the active agent was formulated with various polymer-lipid-carbohydrate conjugates described in the present invention. At a lower of the polymer-lipid-carbohydrate conjugate concentration, i.e., OAPDL-11 (<1.5%), the formulation is a microemulsion and at a higher OAPDL-11 concentration (≧2.2%), it is a true solution.
A solution is defined as a homogenous mixture of substances with variable composition. […]

[3] = Stability of peptide solution by HPLC assay; type: physicochemical; details: 24 hours
Method: Stability experiment was carried out by HPLC assay and a custom synthesized thermolabile peptide with the following sequence was used as the model compound: […] The peptide was added to selected media and sonicated for 10 minutes. The sample solutions were filtered through passed through 0.22-μm pore-size filter to remove dust particles before the HPLC assay. A Simadzu 10avp chromatography system with a Kinetex C18 (2.6 μm, 100×4.6 mm i.d.) column (Phenomenex, Torrance, Calif.) were used. The solutions were kept at 25° C. in the Autosampler during the assay and the mobile phase consisted of 0.1% of trifluoroacetic acid and acetonitrile mixture (v/v, 80/20) with a flow rate of 1.0 mL/min. The peptide peak was monitored at 210 nm and quantitated using external standard sets of the peptide.
The plots were the % recovery vs. time.

| Substance | intravenous hydration effect for reducing renal toxicity of cisplatin [1] | state of Propofol formulation ([2]; OAPDL-11 concentration <1.5%) | state of Propofol formulation ([2]; OAPDL-11 concentration ≧2.2%) | peptide degradation ([3]; in a 50 mM of phosphate buffer) | peptide still remaining ([3]; in a 2% of PEG-carbohydrate-lipid) |
| --- | --- | --- | --- | --- | --- |
| oleoyl-N-(3-aminopropyl)propane-1,3-diamine-Undecaethylene glycol methyl ether Lactobionate [OAPDL-11] | better than free sugars | microemulsion | true solution |  |  |
| FPKLSHGCNKHSRKHPYMTF [peptide, custom synthesized thermolabile peptide used as the model compound] |  |  |  | degraded significantly | more than 97% |
